Measured values as given in the nanobody polyreactivity screen of Harvey et al. (2022).

assay: yeast display, Sf9 membrane polyspecificity reagent, FACS + sequencing; frameworks hold sequencing errors
How it was run: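 Nanobodies came from a synthetic yeast display library in Saccharomyces cerevisiae BJ5465, induced with galactose for 36–48 hours and stained for 1 hour at 4 °C with 10% biotinylated, detergent-solubilized Sf9 membrane reagent. Cells were enriched on streptavidin microbeads and then FACS-sorted, with low and high (top ~1%) gates set on anti-HA fluorescence for expression and streptavidin fluorescence for reagent binding. Each polyreactivity label reflects the gate a clone came from. Genes were amplified by colony PCR, sequenced by MiSeq 2 × 250 and filtered by CDR length.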

Question: With “QVQLVESGGGLVQAGGSLRLSCAASGLTFIVYAMAWYRQAPGKERELVADITWSGGSTYYADSVKGRFTISRDNAKNTVYLQMNSLKPEDTAVYYCNRQSAKIMDYWGQGTQVTVSS” as the sequence, how does the “polyreactivity (PSR sort gate)” value read?
Answer: The value was “low polyreactivity”.

Question: For “QVQLVESGGGLVQAGGSLRLSCAASGLTFIYYAMGWYRQAPGKEREMVAAISTSGASTYYADSVKGRFTISRDNAKNTVYLQMNSLKPEVSAVYYCNGEYFGEYRDYGYWGQGTLVTVSS”, which “polyreactivity (PSR sort gate)” value is on record?
Answer: Its value is “low polyreactivity”.

Question: With “QVQLVESGGGLVQAGGSLRLSCAASGLTFKTYAMGWYRQAPGKERELVAAITRNGGSTYYADSVKGRFTISRDNAKNTVYLQMNSLKPEDTAVYYCAARRAYDNRHDYWGQGTQVTVSS” as the sequence, how does the “polyreactivity (PSR sort gate)” value read?
Answer: Its value is “high polyreactivity”.

Question: For “QVQLVESGGGLVQAGGSLRLSCAASGLTFKWYAMGWYRQAPGKERELVAASSRDGSTYYADSVKGRFTLSRDNAKNTVYLQMTSLKPEDTAVDYCAADIWPSSLLADEYDYWGQGTQVTVSS”, which “polyreactivity (PSR sort gate)” value is on record?
Answer: The value was “high polyreactivity”.

Question: For “QVQLVESGGGLVQAGGSLRLSCAASGLTFKYYAMGWYRQAPGKESELVAAITSTGGRTYYADSVKGRFTISRDNAKNTVYLQMNSLKPEDTAVYYCAAYYVGSSKYDSWGQGTQVTVSS”, which “polyreactivity (PSR sort gate)” value is on record?
Answer: Its value is “low polyreactivity”.

Question: Which “polyreactivity (PSR sort gate)” value does the source give for “QVQLVESGGGLVQAGGSLRLSCAASGLTFNAYAMGWYRQAPGKERELVADITTSDGSTFYADSVKGRFTISRDNAKNTVYLQMNSLKPEDTAVYYCNADAYGWYSGPWFKWLLWYDYWGQGTQVTVSS” here?
Answer: Its value is “low polyreactivity”.

Question: With “QVQLVESGGGLVQAGGSLRLSCAASGLTFNRYAMGWYRQARGKERELVAAISINGGSTYYADSVKGRFTISRDNAKNTVYLQMNSLKPEDTAVYYCAARRVQRPSTYGYWGQGTQVTVSS” as the sequence, how does the “polyreactivity (PSR sort gate)” value read?
Answer: The value was “high polyreactivity”.

Question: With “QVQLVESGGGLVQAGGSLRLSCAASGLTFNYYDRGWYRQAPGKERELVAAISRSRTNTSYADSVKGRFTISRDNAKNTVYLQMNSLKPEDTAVYYCNAAGVYLAAGPYTANFNYNYWGQGTQVTVSS” as the sequence, how does the “polyreactivity (PSR sort gate)” value read?
Answer: Its value is “low polyreactivity”.

Question: For “QVQLVESGGGLVQAGGSLRLSCAASGLTFPLYVMGWYRQAPGKARELVATITGGGSTTYADSVKGRFTISRDNAKNTVYFQMNSLKPEDTAVYYCAADFVFVATPLRYDYWGPGTQVTVSS”, which “polyreactivity (PSR sort gate)” value is on record?
Answer: Its value is “low polyreactivity”.

Question: With “QVQLVESGGGLVQAGGSLRLSCAASGLTFPRYTMGWYRQPPGKERELVAAISSSTGTTNYADSVKGRFTISRDNAKNTVYLQMNSLKPEDTAVYYCAKRVSSWLGFHLDYWGQGTQVTVSS” as the sequence, how does the “polyreactivity (PSR sort gate)” value read?
Answer: The value was “low polyreactivity”.

Question: For “QVQLVESGGGLVQAGGSLRLSCAASGLTFPSYAMGWYRQAPGKERELVAAISRRSGSTYYADSVKGRFTISRDNAKNTVYLQMNSLKPEDTAVYYCTTRRGERGYWGQGTQVTVSS”, which “polyreactivity (PSR sort gate)” value is on record?
Answer: The value was “high polyreactivity”.

Question: Which “polyreactivity (PSR sort gate)” value does the source give for “QVQLVESGGGLVQAGGSLRLSCAASGLTFPTYAMGWYRQAPGKERELVAAISRIGGRTYYADSVKGRFTISRDNAKNTFYLQMNSLKPEDTAVYYCAADVIKGCVEYDYWGQGTKVTVSS” here?
Answer: The value was “high polyreactivity”.

Question: For “QVQLVESGGGLVQAGGSLRLSCAASGLTFPVYTMGWYRQAPGKEREFVAAITYNGGRTYYADSVKGRFTISRDNAKNTVYLQMNSLKPEDTAVYYCAAEYGTYFVRYYAGASYRYGYWGQGTQVTVSS”, which “polyreactivity (PSR sort gate)” value is on record?
Answer: The value was “low polyreactivity”.

Question: With “QVQLVESGGGLVQAGGSLRLSCAASGLTFPYNVMGWYRQAPGKERELVASITSVGTTDYADSVKGRFTISRDNAKNTVSVLMNSLKPEVTAVYYCAADVTLFYWWYGKEDYDYWGQGTQVTVSS” as the sequence, how does the “polyreactivity (PSR sort gate)” value read?
Answer: Its value is “low polyreactivity”.

Question: With “QVQLVESGGGLVQAGGSLRLSCAASGLTFPYYAMGWYRQAPGKERELVAVITSGGRTYYADSVKGRFTISRDNAKNTVYLQMNSLKPEDTAVYYCAVGWRTIYGSDGDYWGQGTQVTVST” as the sequence, how does the “polyreactivity (PSR sort gate)” value read?
Answer: Its value is “high polyreactivity”.

Question: For “QVQLVESGGGLVQAGGSLRLSCAASGLTFPYYVMGWSRQAPGKERELVAAITTDDRTYYADSVKGRFTISRDNAKNTVYLQMNSLKPEDTAVYYCNVVIYYFNSRTVYYDYDYWGQGTQVTVSS”, which “polyreactivity (PSR sort gate)” value is on record?
Answer: Its value is “high polyreactivity”.

Question: With “QVQLVESGGGLVQAGGSLRLSCAASGLTFQKYAMGWYRQAPGKERELVAAISRGGDTYYADSVKGRFTISRDNAKNTVYLQMNSLKPEDTAVYYCAASNYLYRYSHYGYWGQGTQVTVSS” as the sequence, how does the “polyreactivity (PSR sort gate)” value read?
Answer: The value was “high polyreactivity”.
